Reference: patent publication US20150086555A1

Key:
Conditions in all cases: remark: other sources report otherwise
[1] = molecular target: T1, recombinant soluble homotrimeric HA of A/South Carolina/1/18 (H1N1) (Influenza A virus A/South Carolina/1/18 (H1N1)); experiment: trimeric HA microarray, transfection supernatant set 1
[2] = molecular target: T2, recombinant soluble homotrimeric HA of A/Wisconsin/67/05 (H3N2) (Influenza A virus A/Wisconsin/67/2005(H3N2)); experiment: trimeric HA microarray, transfection supernatant set 3
[3] = molecular target: T3, recombinant soluble homotrimeric HA of A/swine/Ontario/01911-2/99 (H4N6) (Influenza A virus A/Swine/Ontario/01911-2/99 (H4N6)); experiment: as above
[4] = molecular target: T4, recombinant soluble homotrimeric HA of A/duck/Yangzhou/02/05 (H8N4) (Influenza A virus A/duck/Yangzhou/02/2005(H8N4)); experiment: as above
[5] = molecular target: T2, recombinant soluble homotrimeric HA of …; experiment: trimeric HA microarray, transfection supernatant set 4
[6] = molecular target: T3, recombinant soluble homotrimeric HA of …; experiment: as above
[7] = molecular target: recombinant soluble homotrimeric HA of A/Japan/305/57 (H2N2) (Influenza A virus A/Japan/305/1957(H2N2)); experiment: as above
[8] = molecular target: recombinant soluble homotrimeric HA of A/Indonesia/5/05 (H5N1) (Influenza A virus A/Indonesia/5/2005(H5N1)); experiment: as above
[9] = molecular target: recombinant soluble homotrimeric HA of A/chicken/Vietnam/NCVD-016/08 (H5N1) (Influenza A virus A/chicken/Vietnam/NCVD-016/2008(H5N1)); experiment: as above
[10] = molecular target: recombinant soluble homotrimeric HA of A/Netherlands/219/03 (H7N7) (Influenza A virus A/Netherlands/219/03(H7N7)); experiment: as above
[11] = molecular target: recombinant soluble homotrimeric HA of A/Egypt/3300-NAMRU3/08 (H5N1) (Influenza A virus A/Egypt/3300-NAMRU3/2008(H5N1)); experiment: as above
[12] = molecular target: recombinant soluble homotrimeric HA of A/Anhui/1/05 (H5N1) (Influenza A virus A/Anhui/1/2005(H5N1)); experiment: as above
[13] = molecular target: recombinant soluble homotrimeric HA of A/Solomon Islands/3/06 (H1N1) (Influenza A virus A/Solomon Islands/3/2006(H1N1)); experiment: as above
[14] = molecular target: recombinant soluble homotrimeric HA of A/California/4/09 (H1N1) (Influenza A virus A/California/04/2009(H1N1)); experiment: as above
[15] = molecular target: T4, recombinant soluble homotrimeric HA of …; experiment: as above
[16] = molecular target: recombinant soluble homotrimeric HA of A/Vietnam/1203/04 (H5N1) (Influenza A virus A/VietNam/1203/2004(H5N1)); experiment: as above
[17] = molecular target: T1, recombinant soluble homotrimeric HA of …; experiment: as above
[18] = molecular target: T5, recombinant soluble homotrimeric HA of A/northern shoveler/California/HKWF115/07 (H6) (Influenza A virus A/northern shoveler/California/HKWF115/2007(H6N1)); experiment: trimeric HA microarray, transfection supernatant set 3
[19] = molecular target: T6, recombinant soluble homotrimeric HA of A/Hong Kong/1073/99 (H9N2) (Influenza A virus A/Hong Kong/1073/99 (H9N2)); experiment: as above
[20] = molecular target: T5, recombinant soluble homotrimeric HA of …; experiment: trimeric HA microarray, transfection supernatant set 4
[21] = molecular target: T6, recombinant soluble homotrimeric HA of …; experiment: as above

B1: TCN-504 (3251_K17) (antibody, V domains shown)
VH: QVQLQESGPGLVKPSETLSLTCAVSGVSISNIDFYWGWIRQPPGKGLEWIGNIYYTGITFYNPSLSSRVAISIDTSKNQFSLTLTSVTAADTAMYYCARHYGDSEAINDAFDIWGQGTMLTVSS
VL: EIVMTQSPATLSVSPGERATLSCRASQSVGNSLAWYQQRPGQAPRLLIYGASTRATGIPPRFSGSGSGTEFTLTISSLQTEDFAVYYCQQYINWRPLSFGGGTKVEIK
Trimeric HA Binding: RLU [1]: 21500 RLU | Trimeric HA Binding: RLU [2]: 21400 RLU | Trimeric HA Binding: RLU [3]: 34500 RLU | Trimeric HA Binding: RLU [4]: 19600 RLU | Trimeric HA Binding: RLU [5]: 20600 RLU | Trimeric HA Binding: RLU [6]: 21800 RLU | Trimeric HA Binding: RLU [7]: 19600 RLU | Trimeric HA Binding: RLU [8]: 18200 RLU | Trimeric HA Binding: RLU [9]: 19200 RLU | Trimeric HA Binding: RLU [10]: 6710 RLU | Trimeric HA Binding: RLU [11]: 24800 RLU | Trimeric HA Binding: RLU [12]: 14100 RLU | Trimeric HA Binding: RLU [13]: 14600 RLU | Trimeric HA Binding: RLU [14]: 549 RLU | Trimeric HA Binding: RLU [15]: 19900 RLU | Trimeric HA Binding: RLU [16]: 25700 RLU | Trimeric HA Binding: RLU [17]: 21700 RLU

B2: TCN-523 (5248_A17) (antibody, V domains shown)
VH: QVQLVQSGAEVKKPGSSVKVSCKASGGSFSNYAFSWVRQAPGQGLEWMGGTIPLLGTTNYAQKFQGRVTISADQFTSTAYMELGSLRSEDTAVYYCTRRKMTTAFDSWGQGTLVTVSS
VL: QPVLTQPPSASASLGASVTLTCTLSSAYSNYKVDWYQQRPGKGPRFVMRVGTGGIVGSKGDGIPDRFSVLGSGLNRYLTIKNIQEEDESDYHCGADHGSGSNFVSPYVFGGGTKLTVL
Trimeric HA Binding: RLU [1]: 26400 RLU | Trimeric HA Binding: RLU [18]: 29400 RLU | Trimeric HA Binding: RLU [19]: 24200 RLU | Trimeric HA Binding: RLU [20]: 25100 RLU | Trimeric HA Binding: RLU [7]: 3840 RLU | Trimeric HA Binding: RLU [21]: 24600 RLU | Trimeric HA Binding: RLU [8]: 24500 RLU | Trimeric HA Binding: RLU [9]: 24000 RLU | Trimeric HA Binding: RLU [10]: 443 RLU | Trimeric HA Binding: RLU [11]: 33400 RLU | Trimeric HA Binding: RLU [12]: 48 RLU | Trimeric HA Binding: RLU [13]: 371 RLU | Trimeric HA Binding: RLU [14]: 28800 RLU | Trimeric HA Binding: RLU [16]: 30900 RLU | Trimeric HA Binding: RLU [17]: 23000 RLU
